From article PMC3734082 come the findings set out here.

The assay concerns the target clathrin triskelia (clathrin heavy chain, CHC) purified from rat liver (UniProt P11442). Put plainly: GST pull-down, CHC. The settings on record: sites S558.

Take “TACC3 (from UniProt Q9Y6A5) S558A treated with Aurora A”: the “binding against the reference” value (reference: wild type treated with Aurora A) is recorded as “weaker”.

“TACC3 clathrin interaction domain (CID), 522-577 (from UniProt Q9Y6A5) S558A CID treated with Aurora A”: the “binding against the reference” value (reference: wild-type CID treated with Aurora A) is given as “weaker”.
